Reference: patent publication US20230312743A1 (MIROBIO, published 2023)

Legend:
[1] = molecular target: T1, monomeric soluble human PD-1 extracellular domain (human, UniProt Q15116 25-170); test: SPR (Biacore 8K), 37 C, antibody captured via anti-human IgG, soluble PD-1 ECD as analyte, single cycle kinetics
T1 construct: extracellular domain; also called recombinant human PD-1 extracellular domain
Method: (§1) Antibody variants were produced consisting of all the potential combinations of humanized VH and VL domains. […] The binding affinity and kinetics of the humanized antibody variants to human or cynomolgus PD-1 were determined by surface plasmon resonance (SPR) using the Biacore 8 K (Cytiva). Human antibody capture kit (Cytiva) was used to coat a Series S CM5 Sensor Chip (Cytiva) with polyclonal anti-human IgG. Anti-PD-1 antibody was then captured onto the biosensor surface and an isotype control antibody captured in the reference channel. Various concentrations of monomeric soluble human PD-1 extracellular domain or soluble cynomolgus macaque PD-1 extracellular domain were then injected over the immobilized antibodies in the buffer 10 mM Hepes, 150 mM NaCl, 0.005% v/v Surfactant P20, pH 7.4 (HBS-P) at 37° C., in a single cycle kinetics analysis. Association and dissociation rates were fitted using BiaEvaluation Software (Cytiva) after reference and blank subtractions, and dissociation constants were calculated.

[2] = molecular target: T2, soluble cynomolgus macaque PD-1 extracellular domain (cynomolgus macaque, UniProt B0LAJ3 25-170); test: as above
T2 construct: also called Cyno PD-1; cynomolgus PD-1
Method: as §1

T1 sequence (Q15116 25-170): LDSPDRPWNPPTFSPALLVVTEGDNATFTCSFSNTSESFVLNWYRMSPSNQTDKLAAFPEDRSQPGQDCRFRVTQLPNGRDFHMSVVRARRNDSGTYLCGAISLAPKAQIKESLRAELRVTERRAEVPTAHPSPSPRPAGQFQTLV
T2 sequence (B0LAJ3 entry or part of it limits assumed): as the sequence (Q15116 25-170) above, with D2E, P10A, V19L, T35A, Q75R, T144A counted along it

B1: humCL19v3 (antibody, human IgG1, V domains shown)
VH: QVQLVQSGAEVKKPGASVKVSCKAFGYTFTTYPIEWMRQAPGKGLEWIGNFHPYNDDTKYNEKFQGRVTLTVDKSSTTVYMELSSLRSEDTAVYYCARENYGSHGGFVYWGQGTLVTVSS
VL: ENVLTQSPATLSLSPGERATLSCRASSSVISSYLHWYQQKPGQAPRLLIYSTSNLASGIPARFSGSGSGTDYTLTISSLEPEDFAVYYCQQYNSYPLTFGGGTKLEIK
notes: hu-VH1 + hu-VL3; human IgG1 kappa isotype
Binder B1 has a Kd [1] of 37.3 nM and a Kd [2] of 236 nM.

B2: humCL19v11 (antibody, human IgG1, V domains shown)
VH: QVQLVQSGSELKKPGASVKVSCKAFGYTFTTYPIEWMRQAPGQGLEWIGNFHPYNDDTKYNEGFTGRFVLSVDKSSTTVYLQISSLKAEDTAVYYCARENYGSHGGFVYWGQGTLVTVSS
VL: ENVLTQSPATLSLSPGERATLSCRASSSVISSYLHWYQQKPGQAPRLLIYSTSNLASGIPARFSGSGSGTDYTLTISSLEPEDFAVYYCQQYNSYPLTFGGGTKLEIK
notes: hu-VH3 + hu-VL3; human IgG1 kappa isotype
B2 gave a Kd [1] of 52.5 nM and a Kd [2] of 249 nM.

B3: humCL19v6 (antibody, human IgG1, V domains shown)
VH: QVQLVQSGAEVKKPGASVKVSCKAFGYTFTTYPIEWVRQAPGKGLEWMGNFHPYNDDTKYNEKFQGRVTMTVDKSTTTVYMELSSLRSEDTAVYYCARENYGSHGGFVYWGQGTLVTVSS
VL: ENQLTQSPSSLSASVGDRVTITCRASSSVISSYLHWYQQKPGKAPKLLIYSTSNLASGVPSRFSGSGSGTDYTLTISSLQPEDFATYYCQQYRGYPLTFGGGTKLEIK
notes: hu-VH2 + hu-VL2; human IgG1 kappa isotype
B3 showed a Kd [1] of 2000 nM and a Kd [2] of 15200 nM.

B4: humCL19v12 (antibody, human IgG1, V domains shown)
VH: QVQLVQSGSELKKPGASVKVSCKAFGYTFTTYPIEWMRQAPGQGLEWIGNFHPYNDDTKYNEGFTGRFVLSVDKSSTTVYLQISSLKAEDTAVYYCARENYGSHGGFVYWGQGTLVTVSS
VL: ENVLTQSPATLSLSPGERATLSCRASSSVISSYLHWYQQKPGQAPRLLIYSTSNRATGIPARFSGSGSGTDYTLTISSLEPEDFAVYYCQQYNSYPLTFGGGTKLEIK
notes: hu-VH3 + hu-VL4; human IgG1 kappa isotype
B4 gave a Kd [1] of 47.5 nM and a Kd [2] of 253 nM.

B5: humCL19v8 (antibody, human IgG1, V domains shown)
VH: QVQLVQSGAEVKKPGASVKVSCKAFGYTFTTYPIEWVRQAPGKGLEWMGNFHPYNDDTKYNEKFQGRVTMTVDKSTTTVYMELSSLRSEDTAVYYCARENYGSHGGFVYWGQGTLVTVSS
VL: ENVLTQSPATLSLSPGERATLSCRASSSVISSYLHWYQQKPGQAPRLLIYSTSNRATGIPARFSGSGSGTDYTLTISSLEPEDFAVYYCQQYNSYPLTFGGGTKLEIK
notes: hu-VH2 + hu-VL4; human IgG1 kappa isotype
B5 was tested, and the Kd [1] was 58.9 nM and the Kd [2] was 369 nM.

B6: humCL19v2 (antibody, human IgG1, V domains shown)
VH: QVQLVQSGAEVKKPGASVKVSCKAFGYTFTTYPIEWMRQAPGKGLEWIGNFHPYNDDTKYNEKFQGRVTLTVDKSSTTVYMELSSLRSEDTAVYYCARENYGSHGGFVYWGQGTLVTVSS
VL: ENQLTQSPSSLSASVGDRVTITCRASSSVISSYLHWYQQKPGKAPKLLIYSTSNLASGVPSRFSGSGSGTDYTLTISSLQPEDFATYYCQQYRGYPLTFGGGTKLEIK
notes: hu-VH1 + hu-VL2; human IgG1 kappa isotype
With B6 the Kd [1] was 1010 nM.

B7: humCL19v7 (antibody, human IgG1, V domains shown)
VH: QVQLVQSGAEVKKPGASVKVSCKAFGYTFTTYPIEWVRQAPGKGLEWMGNFHPYNDDTKYNEKFQGRVTMTVDKSTTTVYMELSSLRSEDTAVYYCARENYGSHGGFVYWGQGTLVTVSS
VL: ENVLTQSPATLSLSPGERATLSCRASSSVISSYLHWYQQKPGQAPRLLIYSTSNLASGIPARFSGSGSGTDYTLTISSLEPEDFAVYYCQQYNSYPLTFGGGTKLEIK
notes: hu-VH2 + hu-VL3; human IgG1 kappa isotype
B7 gave a Kd [1] of 64.5 nM and a Kd [2] of 565 nM.

B8: humCL19v4 (antibody, human IgG1, V domains shown)
VH: QVQLVQSGAEVKKPGASVKVSCKAFGYTFTTYPIEWMRQAPGKGLEWIGNFHPYNDDTKYNEKFQGRVTLTVDKSSTTVYMELSSLRSEDTAVYYCARENYGSHGGFVYWGQGTLVTVSS
VL: ENVLTQSPATLSLSPGERATLSCRASSSVISSYLHWYQQKPGQAPRLLIYSTSNRATGIPARFSGSGSGTDYTLTISSLEPEDFAVYYCQQYNSYPLTFGGGTKLEIK
notes: hu-VH1 + hu-VL4; human IgG1 kappa isotype
B8 showed a Kd [1] of 32 nM and a Kd [2] of 199 nM.

B9: humCL19v5 (antibody, human IgG1, V domains shown)
VH: QVQLVQSGAEVKKPGASVKVSCKAFGYTFTTYPIEWVRQAPGKGLEWMGNFHPYNDDTKYNEKFQGRVTMTVDKSTTTVYMELSSLRSEDTAVYYCARENYGSHGGFVYWGQGTLVTVSS
VL: ENQLTQSPSSLSASVGDRVTITCRASSSVISSYLHWYQQKPGKAPKLLIYSTSNLASGVPSRFSGSGSGTDYTLTISSLQPEDFATYYCQQYNSYPLTFGGGTKLEIK
notes: hu-VH2 + hu-VL1; human IgG1 kappa isotype
In the case of B9, the Kd [1] is reported as 57.6 nM and the Kd [2] is reported as 440 nM.

B10: humCL19v16 (antibody, human IgG1, V domains shown)
VH: QVQLVQSGSELKKPGASVKVSCKAFGYTFTTYPIEWVRQAPGQGLEWMGNFHPYNDDTKYNEGFTGRFVFSVDKSVTTVYLQISSLKAEDTAVYYCARENYGSHGGFVYWGQGTLVTVSS
VL: ENVLTQSPATLSLSPGERATLSCRASSSVISSYLHWYQQKPGQAPRLLIYSTSNRATGIPARFSGSGSGTDYTLTISSLEPEDFAVYYCQQYNSYPLTFGGGTKLEIK
notes: hu-VH4 + hu-VL4; human IgG1 kappa isotype
B10 was tested, and the Kd [1] was 161 nM and the Kd [2] was 896 nM.

B11: Parental (Clone 19 VH and VL) (antibody, V domains shown)
VH: QVQLQQSGAELVKPGASVKMSCKAFGYTFTTYPIEWMKQNHGKSLEWIGNFHPYNDDTKYNEKFKGKAKLTVEKSSTTVYLELSRLTSDDSAVYYCARENYGSHGGFVYWGQGTLVTVSG
VL: ENVLTQSPAIMSASPGEKVTMTCRASSSVISSYLHWYQQKSGASPKLWIYSTSNLASGVPDRFSGSGSGTSYSLTISSVEAEDAATYYCQQYNSYPLTFGAGTKLEIK
notes: The antibodies were captured through anti-human IgG and the variants were made on human IgG1 kappa, so it is probably a chimeric human IgG1 kappa
Work on B11 yielded a Kd [1] of 53.7 nM and a Kd [2] of 318 nM.

B12: humCL19v9 (antibody, human IgG1, V domains shown)
VH: QVQLVQSGSELKKPGASVKVSCKAFGYTFTTYPIEWMRQAPGQGLEWIGNFHPYNDDTKYNEGFTGRFVLSVDKSSTTVYLQISSLKAEDTAVYYCARENYGSHGGFVYWGQGTLVTVSS
VL: ENQLTQSPSSLSASVGDRVTITCRASSSVISSYLHWYQQKPGKAPKLLIYSTSNLASGVPSRFSGSGSGTDYTLTISSLQPEDFATYYCQQYNSYPLTFGGGTKLEIK
notes: hu-VH3 + hu-VL1; human IgG1 kappa isotype
B12 gave a Kd [1] of 44.8 nM and a Kd [2] of 251 nM.

B13: humCL19v13 (antibody, human IgG1, V domains shown)
VH: QVQLVQSGSELKKPGASVKVSCKAFGYTFTTYPIEWVRQAPGQGLEWMGNFHPYNDDTKYNEGFTGRFVFSVDKSVTTVYLQISSLKAEDTAVYYCARENYGSHGGFVYWGQGTLVTVSS
VL: ENQLTQSPSSLSASVGDRVTITCRASSSVISSYLHWYQQKPGKAPKLLIYSTSNLASGVPSRFSGSGSGTDYTLTISSLQPEDFATYYCQQYNSYPLTFGGGTKLEIK
notes: hu-VH4 + hu-VL1; human IgG1 kappa isotype
Work on B13 yielded a Kd [1] of 160 nM.

B14: humCL19v14 (antibody, human IgG1, V domains shown)
VH: QVQLVQSGSELKKPGASVKVSCKAFGYTFTTYPIEWVRQAPGQGLEWMGNFHPYNDDTKYNEGFTGRFVFSVDKSVTTVYLQISSLKAEDTAVYYCARENYGSHGGFVYWGQGTLVTVSS
VL: ENQLTQSPSSLSASVGDRVTITCRASSSVISSYLHWYQQKPGKAPKLLIYSTSNLASGVPSRFSGSGSGTDYTLTISSLQPEDFATYYCQQYRGYPLTFGGGTKLEIK
notes: hu-VH4 + hu-VL2; human IgG1 kappa isotype
B14 showed a Kd [1] of 80200 nM.

B15: humCL19v10 (antibody, human IgG1, V domains shown)
VH: QVQLVQSGSELKKPGASVKVSCKAFGYTFTTYPIEWMRQAPGQGLEWIGNFHPYNDDTKYNEGFTGRFVLSVDKSSTTVYLQISSLKAEDTAVYYCARENYGSHGGFVYWGQGTLVTVSS
VL: ENQLTQSPSSLSASVGDRVTITCRASSSVISSYLHWYQQKPGKAPKLLIYSTSNLASGVPSRFSGSGSGTDYTLTISSLQPEDFATYYCQQYRGYPLTFGGGTKLEIK
notes: hu-VH3 + hu-VL2; human IgG1 kappa isotype
In the case of B15, the Kd [1] is reported as 670 nM.
